{"source": "patent US7186551B1", "about": "“3′-phosphoadenosine -5′-phosphosulfate synthetase 2 (PAPSS2) sequence variants” (Mayo Foundation for Medical Education and Research, priority 2001, dated 2007)", "key": {"[1]": {"test_system": "PAPSS2", "experiment": "PAPSS2 enzyme activity, coupled radiochemical assay (PAPS generation then SULT1E1-catalyzed sulfation of [3H]estradiol) with COS-1 expressed recombinant allozymes", "assay_type": "biochemical, human", "settings": "His-tagged recombinant allozyme, loxP-modified p91023(b) vector, COS-1 cells, corrected for transfection efficiency", "text": "Variant alleles of the four non-synonymous PAPSS2 cSNPs observed during the resequencing experiments were created using the QuickChange Site-Directed Mutagenesis Kit (Stratagene, La Jolla, Calif.), with wild type PAPSS2 cDNA in pUni as template. The sequence of the pUni insert was confirmed by completely sequencing both strands before recombination with the loxP-modified p91023(b) acceptor vector. pUni donor vectors that contained wild type and variant PAPSS2 cDNAs, as well as empty pUni, then were combined with the loxP-modified p91023(b) acceptor vector to generate the final expression constructs. In all cases, the fusion junctions of resultant expression constructs were sequenced to confirm that the construct was a dimer consisting of only a single donor and a single acceptor vector. These expression constructs were used to transfect COS-1 cells using TransFast™ reagent (Promega) with a 1:1 charge ratio. pSV-β-galactosidase (Promega) was co-transfected with each construct as an internal control to correct for transfection efficiency. Transfected COS-1 cells were harvested after 48 hours and were homogenized with a Polytron homogenizer (Brinkmann Instruments, Westbury, N.Y.) in 25 mM potassium phosphate buffer, pH 7.8, containing 1 mM dithiothreitol (DTT) and 1 mM EDTA. The homogenates were centrifuged at 15,000 g for 15 minutes, and the resultant supernatant preparations were used to perform enzyme assays, substrate kinetic studies and Western blot analyses. In some cases, aliquots of these cytosol preparations were stored at −80° C. prior to assay.\nPAPSS2 Enzyme Activity: PAPSS2 activity was measured with a coupled radiochemical assay. See Xu et al., 2001, supra. Briefly, PAPS is generated from ATP and Na2SO4 in a PAPSS2-catalyzed reaction. The generated PAPS is then used as a substrate for the SULT1E1-catalyzed sulfate conjugation of [2,4,6,7-^3H]estradiol, a radioactively labeled sulfate acceptor substrate. The cell homogenate preparations of recombinant PAPSS2 allozymes described above were used for the activity studies without any further purification. The protein concentration of each recombinant protein preparation was determined by the dye-binding method of Bradford with bovine serum albumin (BSA) as a standard.\nPAPS synthesis was catalyzed by recombinant wild-type PAPSS2 or PAPSS2 allozymes (present in the cell homogenate preparations described above) in the presence of 1 mM ATP, 16 mM Na2SO4, 1 mM MgCl2, and 2 mM DTT in 60 mM glycine-NaOH buffer, pH 8.6. Blank samples included the same quantity of COS-1 cytosol protein from cells that had been transfected with empty expression vector to make it possible to correct for endogenous activity. Reaction mixtures were incubated at 37° C. for 20 minutes, and then terminated by heating at 100° C. for 1 minute. An aliquot from this PAPS-generating reaction was then added to a second, coupled reaction containing recombinant human SULT1E1 isolated from COS-1 cells transfected with a SULT1E1 expression construct (see Aksoy et al., Biochem. Biophys. Res. Commun., 200:1621–1629 (1994)). The coupled reaction also included 27 nM [2,4,6,7-^3H]estradiol, 8 mM DTT and 1.25 mM MgCl2 in 10 mM potassium phosphate buffer, pH 6.5. The second, SULT1E1-catalyzed reactions were incubated at 37° C. for 20 minutes, and then terminated by the addition of KOH, followed by organic solvent extraction performed with chloroform. Radioactivity of the sulfate conjugated [2,4,6,7-^3H]estradiol in the aqueous phase after organic solvent extraction was then measured in a liquid scintillation counter. PAPSS activities of recombinant PAPSS2 allozymes were compared after correction for transfection efficiency by measuring the activity of cotransfected P-galactosidase. β-Galactosidase activity in the COS-1 cell preparations was measured with the β-Galactosidase Assay System (Promega) as described by the manufacturer. […]"}, "[2]": {"test_system": "PAPSS2", "experiment": "Substrate kinetic studies of recombinant PAPSS2 with ATP and Na2SO4", "assay_type": "biochemical, human", "method": "To estimate apparent Km values of PAPSS2 for the two reaction cosubstrates, a series of ATP (0.125–4 mM) and Na2SO4 (0.125–16 mM) concentrations were tested with the recombinant allozymes. When ATP was the varied substrate, the concentration of Na2SO4 was 4 mM, and when Na2SO4 was the varied substrate, the concentration of ATP was 1 mM. Blanks for each substrate concentration were included by assaying COS-1 cell cytosol after transfection with empty vector.\nData Analysis: Apparent Km values were calculated by using the method of Wilkinson with a computer program written by Cleland. Wilkinson, Biochem. J., 80:324–332 (1961); and Cleland, Nature, 198:[…] (1963). Statistical comparisons of data were performed by ANOVA with the StatView program, version 4.5 (Abacus Concepts, Inc., Berkeley, Calif.). Apparent Km, S50 and Vmax values for the wild-type and variant PAPSS2 allozymes were compared by the use of unpaired Student's t-test.\nAlterations in amino acid sequence can alter enzyme substrate affinity and/or catalytic efficiency. Decreased activity of the Val291Met allozyme—without a significant alteration in level of enzyme protein—could have resulted from a change in substrate kinetics. Therefore, a series of ATP (0.125–4 mM) and Na2SO4 (0.125–16 mM) concentrations were used to estimate apparent Km values for recombinant wild type PAPSS2 and for the Val291Met variant allozyme. […] ATP concentrations at which 50% maximal velocity was achieved (S50 values) were 0.70 and 0.95 mM for the wild type and variant allozymes, respectively (Table 4). In both cases, the Hill coefficient was greater than 2, […]. In contrast, substrate kinetics of both allozymes for Na2SO4 conformed to Michaelis-Menten predictions (FIG. 5B). […] In summary, decreased activity for the Val1291Met variant appeared to result from an alteration in substrate kinetics, while decreased activity for the Glu10Lys allozyme, in contrast, resulted primarily from a decrease in the quantity of enzyme protein. Because the Val291Met variant was encoded by a construct that contained the most common PAPSS2 nonsynonymous cSNP, these observations could have functional implications for the sulfate conjugation of both endogenous and/or exogenous compounds."}, "[3]": {"settings": "ATP varied 0.125-4 mM, Na2SO4 4 mM, listed as Wild Type"}}}
{"molecule": "wild type: reference human PAPSS2 polypeptide (SEQ ID NO:9, GenBank AF091242), recombinantly expressed in COS-1 cells (protein, listed as Homo sapiens) MSGIKKQKTENQQKSTNVVYQAHHVSRNKRGQVVGTRGGFRGCTVWLTGLSGAGKTTISFALEEYLVSHAIPCYSLDGDNVRHGLNRNLGFSPGDREENIRRIAEVAKLFADAGLVCITSFISPFAKDRENARKIHESAGLPFFEIFVDAPLNICESRDVKGLYKRARAGEIKGFTGIDSDYEKPETPERVLKTNLSTVSDCVHQVVELLQEQNIVPYTIIKDIHELFVPENKLDHVRAEAETLPSLSITKLDLQWVQVLSEGWATPLKGFMREKEYLQVMHFDTLLDDGVINMSIPIVLPVSAEDKTRLEGCSKFVLAHGGRRVAILRDAEFYEHRKEERCSRVWGTTCTKHPHIKMVMESGDWLVGGDLQVLEKIRWNDGLDQYRLTPLELKQKCKEMNADAVFAFQLRNPVHNGHALLMQDTCRRLLERGYKHPVLLLHPLGGWTKDDDVPLDWRMKQHAAVLEEGVLDPKSTIVAIFPSPMLYAGPTEVQWHCRSRMIAGANFYIVGRDPAGMPHPETKKDLYEPTHGGKVLSMAPGLTSVEIIPFRVAAYNKAKKAMDFYDPARHNEFDFISGTRMRKLAREGENPPDGFMAPKAWKVLTDYYRSLEKN", "values": [{"measurement": "% WT activity", "setting": "[1]", "value": 100, "unit": "%"}, {"measurement": "S50 for ATP (ATP concentration at which 50% maximal velocity was achieved)", "setting": "[2]; ATP varied 0.125-4 mM, Na2SO4 4 mM", "value": 0.70, "unit": "mM"}, {"measurement": "Hill coefficient, ATP", "setting": "[2]; [3]", "value": "5.4 ± 0.1"}, {"measurement": "S50 for ATP (ATP concentration at which 50% maximal velocity was achieved)", "setting": "[2]; [3]", "value": "0.70 ± 0.01", "unit": "mM"}, {"measurement": "Km", "setting": "[2]; apparent Km, Na2SO4 varied 0.125-16 mM, ATP 1 mM", "value": 870, "unit": "µM"}, {"measurement": "Vmax/S50, ATP", "setting": "[2]; ratio, wild type = 100, ATP as varied substrate", "value": 100}, {"measurement": "Vmax, ATP", "setting": "[2]; relative Vmax, wild type = 100, ATP as varied substrate", "value": 100}, {"measurement": "Vmax, Na2SO4", "setting": "[2]; relative Vmax, wild type = 100, Na2SO4 as varied substrate", "value": 100}]}
